Holding throughout (experiment): cell_activity
The test system of series [1] is SBS55254 ZFN (TCRA) (synthetic). The settings on record: pair with 55248; T cells, TRAC 180, day 10.
Series [2] concerns TALEN 103067 (synthetic). The settings on record: pair with 103068; K562, 400 ng.
In series [3] the test system is TALEN 103049 (synthetic). The settings on record: pair with 103050; K562, 400 ng.
For series [4], the system named is TALEN 103086 (synthetic). As to conditions: pair with 103085; K562, 400 ng.
Series [5] concerns TALEN 103057 (synthetic). As to conditions: pair with 103058; K562, 400 ng.
In series [6] the test system is TALEN 103064 (synthetic). As to conditions: pair with 103063; K562, 400 ng.
Series [7] relates to TALEN 103056 (synthetic). As to conditions: pair with 103055; K562, 400 ng.
Series [8] deals with TALEN 103077 (synthetic). As to conditions: pair with 103078; K562, 400 ng.
The test system of series [9] is TALEN 103093 (synthetic). The settings on record: pair with 103094; K562, 400 ng.
Series [10] relates to TALEN 103100 (synthetic). As to conditions: pair with 103099; K562, 400 ng.
Series [11] relates to TALEN 103087 (synthetic). The settings on record: pair with 103088; K562, 400 ng.
Series [12] concerns TALEN 103050 (synthetic). As to conditions: pair with 103049; K562, 400 ng.
The test system of series [13] is TALEN 103074 (synthetic). As to conditions: pair with 103073; K562, 400 ng.
In series [14] the test system is TALEN 103075 (synthetic). As to conditions: pair with 103076; K562, 400 ng.
In series [15] the test system is TALEN 103066 (synthetic). The settings on record: pair with 103065; K562, 400 ng.
Series [16] has as its system TALEN 103052 (synthetic). The settings on record: pair with 103051; K562, 400 ng.
Series [17] deals with TALEN 103081 (synthetic). As to conditions: pair with 103082; K562, 400 ng.
The subject of series [18] is TALEN 103082 (synthetic). As to conditions: pair with 103081; K562, 400 ng.
The test system of series [19] is TALEN 103098 (synthetic). As to conditions: pair with 103097; K562, 400 ng.
The subject of series [20] is TALEN 103068 (synthetic). The settings on record: pair with 103067; K562, 400 ng.
Series [21] has as its system TALEN 103065 (synthetic). As to conditions: pair with 103066; K562, 400 ng.
The subject of series [22] is TALEN 103079 (synthetic). As to conditions: pair with 103080; K562, 400 ng.
Series [23] deals with TALEN 103055 (synthetic). The settings on record: pair with 103056; K562, 400 ng.
For series [24], the system named is TALEN 103058 (synthetic). The settings on record: pair with 103057; K562, 400 ng.
Series [25] concerns TALEN 103096 (synthetic). As to conditions: pair with 103095; K562, 400 ng.
For series [26], the system named is TALEN 103076 (synthetic). The settings on record: pair with 103075; K562, 400 ng.
Series [27] deals with TALEN 103070 (synthetic). As to conditions: pair with 103069; K562, 400 ng.
Series [28] has as its system TALEN 103089 (synthetic). As to conditions: pair with 103090; K562, 400 ng.
The subject of series [29] is TALEN 103092 (synthetic). The settings on record: pair with 103091; K562, 400 ng.
The test system of series [30] is TALEN 103084 (synthetic). As to conditions: pair with 103083; K562, 400 ng.
The subject of series [31] is TALEN 103097 (synthetic). The settings on record: pair with 103098; K562, 400 ng.
The subject of series [32] is TALEN 103071 (synthetic). As to conditions: pair with 103072; K562, 400 ng.
Series [33] relates to TALEN 103090 (synthetic). The settings on record: pair with 103089; K562, 400 ng.
For series [34], the system named is TALEN 103095 (synthetic). As to conditions: pair with 103096; K562, 400 ng.
In series [35] the test system is TALEN 103072 (synthetic). The settings on record: pair with 103071; K562, 400 ng.
In series [36] the test system is TALEN 103101 (synthetic). The settings on record: pair with 103102; K562, 400 ng.
In series [37] the test system is TALEN 103063 (synthetic). As to conditions: pair with 103064; K562, 400 ng.
Series [38] has as its system TALEN 103099 (synthetic). As to conditions: pair with 103100; K562, 400 ng.
Series [39] has as its system TALEN 103053 (synthetic). The settings on record: pair with 103054; K562, 400 ng.
Series [40] has as its system TALEN 103094 (synthetic). The settings on record: pair with 103093; K562, 400 ng.
Series [41] concerns TALEN 103073 (synthetic). The settings on record: pair with 103074; K562, 400 ng.
The subject of series [42] is TALEN 103088 (synthetic). The settings on record: pair with 103087; K562, 400 ng.
Series [43] deals with TALEN 103083 (synthetic). As to conditions: pair with 103084; K562, 400 ng.
Series [44] has as its system TALEN 103051 (synthetic). As to conditions: pair with 103052; K562, 400 ng.
The subject of series [45] is TALEN 103061 (synthetic). The settings on record: pair with 103062; K562, 400 ng.
Series [46] has as its system TALEN 103062 (synthetic). The settings on record: pair with 103061; K562, 400 ng.
Series [47] has as its system TALEN 103091 (synthetic). The settings on record: pair with 103092; K562, 400 ng.
For series [48], the system named is TALEN 103069 (synthetic). The settings on record: pair with 103070; K562, 400 ng.
Series [49] deals with TALEN 103085 (synthetic). As to conditions: pair with 103086; K562, 400 ng.
For series [50], the system named is TALEN 103054 (synthetic). As to conditions: pair with 103053; K562, 400 ng.

Regarding “CTCCTGAAAGTGGCCGGGTTTAATCTGC (double strand) [TCRA 55254 site]”, in [1], the activity was found to be 66 % indel.

As to “CTCAGGTACTCCAAAGATTCA (double strand) [TALEN 103067 site]”, in series [2], the activity came out at 49.3 % indel.

As for “ATTCGGGCCGAGATGTCTCGC (double strand) [TALEN 103049 site]”, the activity in [3] is 19.5 % indel.

Take “TTCAATTCTCTCTCCATTCTT (double strand) [TALEN 103086 site]”: the activity in series [4] was found to be 3.9 % indel.

“CTGTGCTCGCGCTACTCTCTC (double strand) [TALEN 103057 site]” registered an activity in series [5] of 46.2 % indel.

In the case of “ATGACGTGAGTAAACCTGAAT (double strand) [TALEN 103064 site]”, the activity in [6] was found to be 14.8 % indel.

Consider “CTGGATAGCCTCCAGGCCAGA (double strand) [TALEN 103056 site]”, for which the activity in series [7] amounted to 25.1 % indel.

“CTATGTGTCTGGGTTTCATCC (double strand) [TALEN 103077 site]” displayed an activity in series [8] of 17.1 % indel.

Turning to “ATGGAGAGAGAATTGAAAAAG (double strand) [TALEN 103093 site]”, the activity in series [9] turned out to be 20.2 % indel.

As for “GTGAATTCAGTGTAGTACAAG (double strand) [TALEN 103100 site]”, in [10], the activity was 15.3 % indel.

“ATCCGACATTGAAGTTGACTT (double strand) [TALEN 103087 site]” yielded an activity in series [11] of 10.5 % indel.

“GTAGCGCGAGCACAGCTAAGG (double strand) [TALEN 103050 site]” yielded an activity in series [12] of 19.5 % indel.

As to “ATAGCAATTCAGGAAATTTGA (double strand) [TALEN 103074 site]”, the activity in series [13] stood at 3 % indel.

In [14], “TTCCTGAATTGCTATGTGTCT (double strand) [TALEN 103075 site]” returned an activity of 1.5 % indel.

In the case of “CTCTGCTGGATGACGTGAGTA (double strand) [TALEN 103066 site]”, the activity in [15] turned out to be 41.2 % indel.

Regarding “CTCCAGGCCAGAAAGAGAGAG (double strand) [TALEN 103052 site]”, the activity in [16] is 63.8 % indel.

In [17], “GTCTGGGTTTCATCCATCCGA (double strand) [TALEN 103081 site]” displayed an activity of 27.5 % indel.

“CTCCATTCTTCAGTAAGTCAA (double strand) [TALEN 103082 site]”: the activity in [18] amounted to 27.5 % indel.

Take “ATTCAGTGTAGTACAAGAGAT (double strand) [TALEN 103098 site]”: in [19], the activity was 52 % indel.

In [20], “ATTCTCTGCTGGATGACGTGA (double strand) [TALEN 103068 site]” registered an activity of 49.3 % indel.

In turn, “TTCCTCAGGTACTCCAAAGAT (double strand) [TALEN 103065 site]” registered an activity in series [21] of 41.2 % indel.

“ATGTGTCTGGGTTTCATCCAT (double strand) [TALEN 103079 site]”: the activity in series [22] came to 42.3 % indel.

For “CTTAGCTGTGCTCGCGCTACT (double strand) [TALEN 103055 site]”, the activity in [23] is 25.1 % indel.

Sequence “CTCACGCTGGATAGCCTCCAG (double strand) [TALEN 103058 site]” showed an activity in series [24] of 46.2 % indel.

“GTGTAGTACAAGAGATAGAAA (double strand) [TALEN 103096 site]” came in with an activity in [25] of 42 % indel.

Turning to “GTCAACTTCAATGTCGGATGG (double strand) [TALEN 103076 site]”, the activity in series [26] turned out to be 1.5 % indel.

For the sequence “TTTCCATTCTCTGCTGGATGA (double strand) [TALEN 103070 site]”, the activity in series [27] is 27.9 % indel.

With “TTGAAGTTGACTTACTGAAGA (double strand) [TALEN 103089 site]”, in [28], the activity was found to be 16.1 % indel.

Take “GTCTGAATGCTCCACTTTTTC (double strand) [TALEN 103092 site]”: the activity in series [29] amounted to 48.5 % indel.

As to “TTCTCTCTCCATTCTTCAGTA (double strand) [TALEN 103084 site]”, the activity in [30] came out at 32.2 % indel.

“CTTGTCTTTCAGCAAGGACTG (double strand) [TALEN 103097 site]”: in series [31], the activity was determined as 52 % indel.

Sequence “CTCCAAAGATTCAGGTTTACT (double strand) [TALEN 103071 site]” gave an activity in series [32] of 13.3 % indel.

Consider “ATGCTCCACTTTTTCAATTCT (double strand) [TALEN 103090 site]”, for which the activity in series [33] was determined as 16.1 % indel.

Consider “TTCAGACTTGTCTTTCAGCAA (double strand) [TALEN 103095 site]”, for which the activity in series [34] amounted to 42 % indel.

In [35], “TTGACTTTCCATTCTCTGCTG (double strand) [TALEN 103072 site]” registered an activity of 13.3 % indel.

Consider “CTGGTCTTTCTATCTCTTGTA (double strand) [TALEN 103101 site]”, for which the activity in series [36] amounted to 15.5 % indel.

Turning to “TTTTCCCGATATTCCTCAGGT (double strand) [TALEN 103063 site]”, the activity in [37] is 14.8 % indel.

Take “CTTTCAGCAAGGACTGGTCTT (double strand) [TALEN 103099 site]”: the activity in series [38] worked out at 15.3 % indel.

For the sequence “GTGGCCTTAGCTGTGCTCGCG (double strand) [TALEN 103053 site]”, in series [39], the activity was 32.4 % indel.

In turn, “CTTGCTGAAAGACAAGTCTGA (double strand) [TALEN 103094 site]” registered an activity in series [40] of 20.2 % indel.

“CTCACGTCATCCAGCAGAGAA (double strand) [TALEN 103073 site]” displayed an activity in series [41] of 3 % indel.

Consider “CTTTTTCAATTCTCTCTCCAT (double strand) [TALEN 103088 site]”, for which the activity in series [42] turned out to be 10.5 % indel.

For “TTTCATCCATCCGACATTGAA (double strand) [TALEN 103083 site]”, in [43], the activity stood at 32.2 % indel.

For the sequence “CTCCGTGGCCTTAGCTGTGCT (double strand) [TALEN 103051 site]”, the activity in [44] is 63.8 % indel.

The sequence “GTGTCTTTTCCCGATATTCCT (double strand) [TALEN 103061 site]” displayed an activity in [45] of 22.9 % indel.

“GTGAGTAAACCTGAATCTTTG (double strand) [TALEN 103062 site]” came in with an activity in series [46] of 22.9 % indel.

Turning to “GTTGACTTACTGAAGAATGGA (double strand) [TALEN 103091 site]”, the activity in [47] amounted to 48.5 % indel.

The sequence “GTACTCCAAAGATTCAGGTTT (double strand) [TALEN 103069 site]” showed an activity in series [48] of 27.9 % indel.

Sequence “ATCCATCCGACATTGAAGTTG (double strand) [TALEN 103085 site]” gave an activity in [49] of 3.9 % indel.

Consider “ATAGCCTCCAGGCCAGAAAGA (double strand) [TALEN 103054 site]”, for which the activity in series [50] turned out to be 32.4 % indel.

For the origin of these results see patent US20220175839.
